Laboratory results published in publication PMC12535202, “N3A motifs in RIβ mediate allosteric crosstalk between cAMP and ATP in PKA activation” (Protein Science : A Publication of the Protein Society, 2025).

Target: the molecule itself
Assay: non-reducing SDS-PAGE with Western blot; mouse tissue supernatants (70 μg), sample buffer without reducing agent, unboiled, 8% SDS-PAGE, blot probed with an RIβ-specific antibody

B1: RIβ from mouse brain tissue (natural protein, mouse (endogenous in mouse brain), UniProt P12849 1-381, looked up)
chain: MASPSCFHSEDEDSLKGCEMYVQKHGIQQVLKECIVHLCVAKPDRPLRFLREHFEKLEKEENRQILARQKSNSQCDSHDEEISPTPPNPVVKARRRRGGVSAEVYTEEDAVSYVRKVIPKDYKTMTALAKAISKNVLFSHLDDNERSDIFDAMFPVTHIGGETVIQQGNEGDNFYVIDQGEVDVYVNGEWVTNISEGGSFGELALIYGTPRAATVKAKTDLKLWGIDRDSYRRILMGSTLRKRKMYEEFLSKVSILESLEKWERLTVADALEPVQFEDGEKIVVQGEPGDDFYIITEGTASVLQRRSPNEEYVEVGRLGPSDYFGEIALLLNRPRAATVVARGPLKCVKLDRPRFERVLGPCSEILKRNIQRYNSFISLTV
modifications: disulfide bonded (dimer seen under non-reduced conditions)
notes: PKA regulatory subunit RIβ, endogenous in mouse brain, detected with an RIβ-specific antibody; source: endogenous, mouse brain homogenate (digitonin lysis buffer), supernatant
stoichiometry N: 2
